The record followed here is US20150004189A1 (published 2015).

One experiment deals with T1, HLA-DP DPB1*0401 (human).
T1 chain 1: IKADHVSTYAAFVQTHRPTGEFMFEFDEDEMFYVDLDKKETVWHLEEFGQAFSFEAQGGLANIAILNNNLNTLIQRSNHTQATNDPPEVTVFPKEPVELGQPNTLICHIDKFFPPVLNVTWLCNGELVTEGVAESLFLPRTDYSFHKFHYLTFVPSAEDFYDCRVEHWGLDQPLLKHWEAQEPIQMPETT
T1 chain 2: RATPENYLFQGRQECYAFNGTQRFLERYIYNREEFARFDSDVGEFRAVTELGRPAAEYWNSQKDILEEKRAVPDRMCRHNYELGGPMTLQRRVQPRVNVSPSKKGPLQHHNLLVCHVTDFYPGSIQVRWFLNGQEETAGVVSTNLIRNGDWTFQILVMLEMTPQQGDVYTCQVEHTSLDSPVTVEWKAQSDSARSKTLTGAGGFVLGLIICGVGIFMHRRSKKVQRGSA
Briefly: inhibition of radiolabeled peptide binding to purified HLA-DP.

Experiment [1] addresses HLA-DQ molecule DQB1*0602 (human). Briefly: inhibition of radiolabeled peptide binding to purified HLA-DQ.
Experiment [2] has as its target HLA-DQ molecule DQB1*0503 (human). Described as above.
In experiment [3] the target is HLA-DQ molecule DQB1*0202 (human). The description is as above.
The target in experiment [4] is HLA-DQ molecule DQB1*0502 (human). Described as above.
Experiment [5] has as its target HLA DQ molecule DQB1*0503 (human). Nature of the experiment: inhibition of radiolabeled peptide binding to purified HLA class II.
The target in experiment [6] is HLA DQ molecule DQB1*0602 (human). The description is as above.
Experiment [7] has as its target HLA-DP molecule DPB1*2001 (human). Briefly: inhibition of radiolabeled peptide binding to purified HLA-DP.
Experiment [8] has as its target HLA-DP molecule DPB1*1401 (human). Described as above.
Experiment [9] addresses HLA DQ molecule DQB1*0503 (human). Nature of the experiment: inhibition of radiolabeled peptide binding to purified HLA class II. The source holds these as a separate data set.
In experiment [10] the target is HLA DQ molecule DQB1*0202 (human). The description is as above.
For experiment [11], the target named is HLA DQ molecule DQB1*0502 (human). The experiment is described as above.
Experiment [12] has as its target HLA DQ molecule DQB1*0602 (human). The description is as above. This is another data set of the same source.
Experiment [13] has as its target HLA DQ molecule DQB1*0502 (human). Described as above. The source holds these as a separate data set.
For experiment [14], the target named is HLA-DQ molecule DQB1*0602 (human). Briefly: inhibition of radiolabeled peptide binding to purified HLA.
The target in experiment [15] is HLA-DQ molecule DQB1*0503 (human). The description is as above.
Experiment [16] deals with HLA-DQ molecule DQB1*0202 (human). The description is as above.
The target of experiment [17] is HLA-DQ molecule DQB1*0502 (human). The experiment is described as above.
In experiment [18] the target is T2, HLA DP molecule DPB1*0401 (human).
T2 chain 1: T1 chain 1
T2 chain 2: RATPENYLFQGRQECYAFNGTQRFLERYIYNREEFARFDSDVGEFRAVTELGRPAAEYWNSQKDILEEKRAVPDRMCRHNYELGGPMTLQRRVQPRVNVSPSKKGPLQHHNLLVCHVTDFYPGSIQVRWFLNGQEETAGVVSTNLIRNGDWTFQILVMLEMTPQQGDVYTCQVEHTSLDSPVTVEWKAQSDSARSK
Nature of the experiment: competition vs radiolabeled peptide, purified HLA-DP.

Usually IC50 stands for the concentration that gives 50% inhibition. A low value points to greater potency. Turning to PARLFKAFVLDSDNL [Que a 1 peptide 16-30 PARLFKAFVLDSDNL (Peptide ID 3324.1585)], the half-maximal inhibitory concentration (IC50) with HLA-DP DPB1*0401 was 0.052 µM.
For GSDEKNLALSIKYNK [Dac g 2 (11-25) peptide GSDEKNLALSIKYNK], the IC50 turned out to be 0.13 µM in [1], 50 µM in [2] and 7.2 µM in experiment [3].
ASVIPPARLFKAFVL [Que a 1 peptide 11-25 ASVIPPARLFKAFVL (Peptide ID 3324.1587)] displayed a half-maximal inhibitory concentration (IC50) with HLA-DP DPB1*0401 of 0.917 µM.
As to EKALWIIFSQNMNIK [Cup s 1 (86-100) peptide EKALWIIFSQNMNIK], the IC50 in experiment [4] came out at 13 µM; in experiment [2], 1.93 µM; in experiment [3] it was 5.56 µM.
In the case of NMNIKLKMPLYVAGH [Cup s 1 (96-110) peptide NMNIKLKMPLYVAGH], the half-maximal inhibitory concentration (IC50) worked out at 14.5 µM in experiment [1], 20.8 µM in experiment [4], 11.7 µM in experiment [2] and 50 µM in experiment [3].
Take NALSVLDKIYTSPLC [Fel d 1 1 (78-92) peptide NALSVLDKIYTSPLC, Peptide ID 3324.1050]: the IC50 in experiment [5] was 5.83 µM; in [6] it was 1 µM.
Consider LWEVKSAKPLTGPMN [Lol p 3 peptide, position 51, LWEVKSAKPLTGPMN (Peptide ID 3337.0031), listing 1 of 2 here], for which the results for the concentration for half-maximal inhibition (IC50) in experiment [7] and in experiment [8] were 0.671 µM and 18.6 µM, respectively.
DSYKFIPTLVAAVKQ [Lol p 5 1 peptide, position 236, DSYKFIPTLVAAVKQ (Peptide ID 3324.1165)]: the IC50 in [9] turned out to be 4.64 µM; in experiment [10], 5.86 µM; in [11], 50 µM.
For PARLFKAFVLDSDNL [Que a 1 (16-30) peptide PARLFKAFVLDSDNL], the IC50 in [1] came to 2.6 µM; in [4], 0.0079 µM; in [2], 0.161 µM; in experiment [3] it was 0.31 µM.
Turning to KALWIIFSQNMNIKL [Cup a 1 (66-80) peptide KALWIIFSQNMNIKL], the IC50 in experiment [4] amounted to 50 µM; in experiment [2], 29 µM.
Regarding DIYNYMEPYVSKVDP [Dac g 4 peptide 1-15 DIYNYMEPYVSKVDP (Peptide ID 3324.0663)], in the experiment with HLA-DP DPB1*0401, the IC50 turned out to be 23.4 µM.
As for DAFIAALTEALRVIA [Pha a 5 peptide, position 121, DAFIAALTEALRVIA (Peptide ID 3324.1432)], the half-inhibitory concentration (IC50) stood at 0.031 µM in [7] and 29.7 µM in [8].
Consider DGVWEIKSDKPLKGP [Lol p 2 peptide, position 51, DGVWEIKSDKPLKGP (Peptide ID 3324.1139)], for which the half-inhibitory concentration (IC50) in [12] came to 26.6 µM; in experiment [10], 0.53 µM.
As for MRNVFDDVVPADFKV [Lol p 2 peptide, position 76, MRNVFDDVVPADFKV (Peptide ID 3337.0030), listing 1 of 2 here], the IC50 was found to be 0.082 µM in experiment [7] and 24.2 µM in experiment [8].
Take KAFVLDSDNLIPKVV [Que a 1 (21-35) peptide KAFVLDSDNLIPKVV]: the values for the 50% inhibitory concentration (IC50) in experiment [2] and in experiment [3] were 2.64 µM and 0.194 µM, respectively.
Turning to PAAAYATATPAAATA [Lol p 5 1 peptide, position 306, PAAAYATATPAAATA (Peptide ID 3324.1184)], the concentration for half-maximal inhibition (IC50) is 0.224 µM in [12], 0.679 µM in experiment [10] and 7.45 µM in experiment [11].
For ASEVFKAVEAYLVAH [Que a 1 (141-155) peptide ASEVFKAVEAYLVAH], the values for the IC50 in [4], in experiment [2] and in [3] were 5.31 µM, 2.04 µM and 0.953 µM, respectively.
Turning to DEYVEQVAQYKALPV [Fel d 1 1 (41-55) peptide DEYVEQVAQYKALPV, Peptide ID 3324.1049], the results for the IC50 in experiment [6] and in [13] were 0.14 µM and 0.337 µM, respectively.
Take IVYIKPAKNIYSFNE [Bet v 6 (211-225) peptide IVYIKPAKNIYSFNE]: the IC50 in experiment [1] was 0.019 µM; in experiment [4] it was 5.83 µM; in [2], 0.65 µM.
For LIEKINAGFKAAVAA [Lol p 5 1 peptide, position 71, LIEKINAGFKAAVAA (Peptide ID 3324.1175)], the 50% inhibitory concentration (IC50) in experiment [8] worked out at 2.42 µM.
On to RYANPIAFFRKEPLK [Lol p 11 peptide, position 111, RYANPIAFFRKEPLK (Peptide ID 3324.1138)], for which the IC50 was found to be 1.6 µM in experiment [9], 9.74 µM in experiment [12], 26 µM in [10] and 0.793 µM in experiment [11].
For the molecule EDTNIYNSNEAFKVE [Cup a 1 (316-330) peptide EDTNIYNSNEAFKVE], the values for the 50% inhibitory concentration (IC50) in [1], in experiment [4] and in experiment [3] were 8.29 µM, 2.42 µM and 7.54 µM, respectively.
As to GSCWAFSGVAATESA [Der f 1 (131-145) peptide GSCWAFSGVAATESA, Peptide ID 3324.0670], the IC50 in experiment [5] stood at 7.93 µM; in [6], 1.33 µM; in [13], 9.32 µM.
For the molecule DGVWEIKSDKPLKGP [Lol p 2 peptide 51-65 DGVWEIKSDKPLKGP (Peptide ID 3324.1139)], the half-maximal inhibitory concentration (IC50) with HLA-DP DPB1*0401 amounted to 5.21 µM.
Still for that read-out and setting: then KALWIIFSQNMNIKL [Cup a 1 peptide 66-80 KALWIIFSQNMNIKL (Peptide ID 3324.0604)], with 1.73 µM.
LWEVKSAKPLTGPMN [Lol p 3 peptide, position 51, LWEVKSAKPLTGPMN (Peptide ID 3337.0031), listing 2 of 2 here]: the IC50 in experiment [12] is 3.95 µM; in experiment [10], 2.44 µM.
Consider LEKISNEIKIVATPD [Bet v 1 peptide 3324.0353 (position 96)], for which the IC50 in [14] was 0.019 µM; in [15] it was 8.89 µM; in experiment [16] it was 8.67 µM; in [17], 5.09 µM.
On to SDAKTLVLNIKYTRP [Lol p 3 peptide, position 11, SDAKTLVLNIKYTRP (Peptide ID 3324.1142)], for which the results for the IC50 in experiment [9], in experiment [10] and in experiment [11] were 33.9 µM, 25.7 µM and 50 µM, respectively.
In turn, EKALWIIFSQNMNIK [Cup s 1 peptide 86-100 EKALWIIFSQNMNIK (Peptide ID 3324.0615)] registered an IC50 with HLA-DP DPB1*0401 of 1.54 µM.
Take IKSDKPLKGPFNFRF [Lol p 2 peptide 56-70 IKSDKPLKGPFNFRF (Peptide ID 3324.1140)]: the IC50 in the experiment with HLA-DP DPB1*0401 came to 12.3 µM.
For the molecule MRNVFDDVVPADFKV [Lol p 2 peptide, position 76, MRNVFDDVVPADFKV (Peptide ID 3337.0030), listing 2 of 2 here], the half-maximal inhibitory concentration (IC50) in experiment [9] was 0.347 µM; in experiment [12] it was 39.5 µM.
In the case of FSGVAATESAYLAYR [Der f 1 (136-150) peptide FSGVAATESAYLAYR, Peptide ID 3324.0666], the values for the IC50 in [5], in experiment [6] and in [13] were 4.19 µM, 2.02 µM and 1.21 µM, respectively.
IKSDKPLKGPFNFRF [Lol p 2 peptide, position 56, IKSDKPLKGPFNFRF (Peptide ID 3324.1140)]: the IC50 in experiment [9] worked out at 50 µM; in experiment [12], 50 µM; in experiment [11], 38.2 µM.
In the case of GAYETYKFIPSLEAA [Pha a 5 peptide, position 201, GAYETYKFIPSLEAA (Peptide ID 3324.1433)], the IC50 was found to be 0.358 µM in [9] and 0.846 µM in [12].
Consider IAFFRKEPLKECGGI [Lol p 11 peptide, position 116, IAFFRKEPLKECGGI (Peptide ID 3337.0029)], for which the IC50 in [9] worked out at 0.903 µM; in experiment [12], 50 µM; in experiment [10] it was 26.2 µM; in experiment [11], 1.44 µM.
DIYNYMEPYVSKVDP [Dac g 4 (1-15) peptide DIYNYMEPYVSKVDP]: in experiment [4], the half-maximal inhibitory concentration (IC50) was found to be 2.02 µM.
In experiment [18], NGNELLLDLSLTKVN [Fel d 1 2 peptide, position 36, NGNELLLDLSLTKVN (Peptide ID 3324.1055)] displayed a half-inhibitory concentration (IC50) of 0.59 µM.
Consider DAYVATLTEALRVIA [Lol p 5 1 peptide, position 151, DAYVATLTEALRVIA (Peptide ID 3324.1167)], for which the IC50 in experiment [9] was found to be 50 µM; in [10] it was 1.8 µM; in experiment [11], 50 µM.
On to RYANPIAFFRKEPLK [Lol p 11 peptide 111-125 RYANPIAFFRKEPLK (Peptide ID 3324.1138)], for which the IC50 with HLA-DP DPB1*0401 is 2.06 µM.
